{
  "source": "patent US20250114450A1",
  "about": "“PHARMACEUTICAL COMBINATION CONTAINING ANTI-PD-1-ANTI-VEGFA BISPECIFIC ANTIBODY, AND USE THEREOF” (Akeso Biopharma, Inc., priority 2021, published 2025)",
  "target": "FcγRI (UniProt P12314)",
  "sequence (P12314 16-288 limits assumed)": "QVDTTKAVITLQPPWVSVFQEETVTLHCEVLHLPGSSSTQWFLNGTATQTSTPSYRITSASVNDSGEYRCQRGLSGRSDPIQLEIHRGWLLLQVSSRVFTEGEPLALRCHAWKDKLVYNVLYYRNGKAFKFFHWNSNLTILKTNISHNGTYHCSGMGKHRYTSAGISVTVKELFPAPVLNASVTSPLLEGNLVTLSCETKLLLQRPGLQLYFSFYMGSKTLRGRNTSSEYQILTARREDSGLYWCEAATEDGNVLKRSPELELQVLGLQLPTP",
  "assay": "BLI (Fortebio Octet), FcγRI immobilized on HIS1K sensor, antibody 3.12-50 nM, 1:1 fit",
  "data": [
    {"substance": "Nivolumab (antibody)", "values": [
      {"measurement": "Kd", "result": 6.2, "unit": "nM"}
    ]}
  ]
}
